Experiments:
[1] = system: citrate-anticoagulated whole blood; assay: Rotational thrombelastometry clot lysis in tPA-spiked whole blood; format: biochemical; settings: tPA-spiked whole blood
From the text: To further test the fibrinolysis-activating properties of VHHs in an ex-vivo model of hyperfibrinolysis, a whole blood based assay can be used whereat citrate-anticoagulated whole blood in the presence of VHHs is spiked with tPA and clot formation and the fibrinolysis rate of the formed clot monitored by thrombelastometry after initiation of clotting by addition of CaCl2) solution containing recombinant TF.
FIG. 4. Influence of VHHs on endogenous fibrinolysis. (A) Citrate-anticoagulated whole blood was mixed with VHHs A11 or C5 and with tPA to achieve a final concentration of 0.5 μg/ml and clot formation was induced by addition of CaCl2) (0.2 M). (B) Lysis index at 60 min(C) Maximum lysis rates, and (D) lysis onset time were recorded. Mean values and SD were calculated out of three measurements.
(§1) The impact of VHHs on the fibrinolytic activity in plasma and whole blood was monitored using rotational thrombelastometry using the ROTEM delta system (TEM Innovations Ltd., Munich, Germany). […] After addition of 0.1 μg/ml tPA, coagulation was initiated by addition of recombinant tissue factor (Dade Innovin, Siemens Healthcare, Marburg, Germany) dissolved 1:100 in calcium chloride (0.2 M). The viscoelasticity of the formed clot was measured in terms of key parameters including clotting time, maximal clot firmness, maximum clot elasticity, maximum lysis, lysis index after 60 minutes, and lysis onset time.

[2] = system: citrate-anticoagulated pooled normal human plasma; assay: Rotational thrombelastometry clot formation parameters in plasma; format: biochemical; settings: VHHs or BPTI 2.4 μM, TXA 2.4 μg/ml; tPA 0.1 μg/ml
Description: FIG. 10. The impact of VHHs on the clot formation parameters in plasma monitored by rotational thrombelastometry. […] After addition of tPA to reach a final concentration of 0.1 μg/ml, coagulation was initiated by addition of recombinant tissue factor (Dade® Innovin®) dissolved 1:100 in calcium chloride solution (0.2 M). The viscoelasticity of the formed clot was measured in terms of (A) clotting time, (B) maximum clot firmness, and (C) maximum clot elasticity. A non-binder VHH (GFP-enhancer VHH) was used as negative control. Mean values and SD were calculated out of three measurements.
as §1

plasmin [3] = target: T1, plasmin (Homo sapiens, UniProt P00747); assay: Stability of plasmin (autocatalytic degradation) in activation buffer; format: biochemical; settings: 100 mM TXA or lysine in buffer
T1 construct: human Lys-plasmin which is prepared from homogeneous Glu-plasminogen using uPA; purchased Haematologic Technologies, Inc. (Essex Junction, VT)
T1 sequence (P00747 97-580 limits assumed): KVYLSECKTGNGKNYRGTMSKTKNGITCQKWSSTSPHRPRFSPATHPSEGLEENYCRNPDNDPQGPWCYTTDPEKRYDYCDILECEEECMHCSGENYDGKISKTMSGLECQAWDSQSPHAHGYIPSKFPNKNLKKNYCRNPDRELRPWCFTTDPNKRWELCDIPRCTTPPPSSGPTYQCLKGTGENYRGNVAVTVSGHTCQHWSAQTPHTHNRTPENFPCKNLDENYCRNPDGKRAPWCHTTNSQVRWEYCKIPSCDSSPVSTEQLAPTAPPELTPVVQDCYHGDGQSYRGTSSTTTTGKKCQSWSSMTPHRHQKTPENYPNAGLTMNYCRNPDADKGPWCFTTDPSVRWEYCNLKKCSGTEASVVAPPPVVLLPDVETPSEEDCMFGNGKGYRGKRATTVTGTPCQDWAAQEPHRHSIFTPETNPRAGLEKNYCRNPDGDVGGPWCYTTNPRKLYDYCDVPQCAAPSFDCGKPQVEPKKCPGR
T1 sequence (P00747 581-810 limits assumed): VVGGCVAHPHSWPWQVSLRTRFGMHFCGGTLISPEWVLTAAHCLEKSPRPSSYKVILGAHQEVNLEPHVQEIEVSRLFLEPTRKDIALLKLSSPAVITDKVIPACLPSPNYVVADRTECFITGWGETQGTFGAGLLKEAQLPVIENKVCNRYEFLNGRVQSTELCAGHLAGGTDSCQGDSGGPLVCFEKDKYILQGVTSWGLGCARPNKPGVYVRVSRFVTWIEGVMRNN

plasminogen = target: T2, plasminogen (Homo sapiens, UniProt P00747); assay: Plasmin generation assay (tPA-mediated plasminogen activation, purified system); format: biochemical; settings: at the assessed / higher concentrations
T2 construct: Plasma derived human Glu-plasminogen; purchased Haematologic Technologies, Inc. (plasminogen); Boehringer Ingelheim (tPA)
T2 sequence (P00747 20-810 limits assumed): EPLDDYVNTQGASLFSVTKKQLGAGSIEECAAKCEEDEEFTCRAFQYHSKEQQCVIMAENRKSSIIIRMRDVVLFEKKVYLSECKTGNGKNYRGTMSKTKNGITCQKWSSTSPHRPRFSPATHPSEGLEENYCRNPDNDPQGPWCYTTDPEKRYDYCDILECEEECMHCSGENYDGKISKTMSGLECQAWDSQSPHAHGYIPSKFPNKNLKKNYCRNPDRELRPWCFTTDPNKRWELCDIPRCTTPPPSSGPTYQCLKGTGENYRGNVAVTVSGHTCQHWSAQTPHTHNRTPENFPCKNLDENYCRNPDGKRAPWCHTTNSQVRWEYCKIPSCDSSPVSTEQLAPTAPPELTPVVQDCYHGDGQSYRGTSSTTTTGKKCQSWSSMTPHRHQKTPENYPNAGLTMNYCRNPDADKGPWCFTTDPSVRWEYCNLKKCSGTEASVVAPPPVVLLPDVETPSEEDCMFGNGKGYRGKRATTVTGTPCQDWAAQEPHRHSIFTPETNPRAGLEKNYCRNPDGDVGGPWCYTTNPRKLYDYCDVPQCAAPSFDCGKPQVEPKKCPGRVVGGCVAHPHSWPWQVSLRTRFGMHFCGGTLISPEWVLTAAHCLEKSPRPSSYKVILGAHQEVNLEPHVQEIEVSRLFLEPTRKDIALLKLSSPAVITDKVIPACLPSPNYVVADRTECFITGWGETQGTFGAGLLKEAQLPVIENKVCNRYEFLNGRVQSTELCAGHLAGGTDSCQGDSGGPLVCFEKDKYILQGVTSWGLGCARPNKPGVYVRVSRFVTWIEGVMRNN
Description: In order to assess the influence of VHHs on tPA-mediated plasminogen activation, plasminogen was preincubated with increasing concentrations of VHHs. After addition of tPA, plasmin generation was measured over time using a fluorogenic plasmin peptide substrate.
FIG. 5. Influence of VHHs on tPA-mediated plasminogen activation. […] After addition of tPA (10 nM final concentration) plasmin generation was measured over time using the fluorogenic plasmin assay. The data are presented as mean±SD of three independent measurements.
Plasminogen (50 nM) was incubated with VHHs (2 μM to 0.2 μM) for 30 min at 37° C. in assay buffer. Subsequently, 20 μl of 50 nM tPA was added to the mixture and incubated at 37° C. After 3 hours of incubation at 37° C., 50 μl of the mixture were transferred to the wells of black F16 Fluoronunc modules and after addition of 50 μl of the plasmin-specific fluorogenic substrate (800 μM) fluorescence intensities were measured at λex of 360 nm and λem of 460 nm using the Synergy 2 microplate reader.

plasmin [4] = target: T1, plasmin; assay: Activated factor V-inactivation assay (prothrombinase assay); format: biochemical
Description: FIG. 6. (A) Influence of VHHs on plasmin-mediated FVa cleavage. Plasmin (1.5 nM) was incubated with increasing concentrations of VHHs for 30 min at 37° C. After addition of FVa (30 pM) and further incubation for 30 min, FXa (0.52 pM), prothrombin (10 nM) and a fluorogenic thrombin substrate (100 μM) were added and the FVa-dependent thrombin generation was measured. The FVa inactivation rate measured in the absence of VHHs or plasmin inhibitors was set as 100%. […] The data are presented as mean±SD of two independent measurements.
Plasmin-mediated inactivation of activated factor V (FVa) was measured using a prothrombinase assay as recently described (Hamedani 2020). Briefly, 1.5 nM plasmin in assay buffer (20 mM Tris-HCl, 137 mM NaCl, 10 mg/ml phospholipids, 5 mM CaCl2, 1 mg/ml BSA, pH 7.4) was preincubated with VHHs (0.1 nM-10 μM final concentrations) for 30 min at 37° C. Then, 60 μl of the mixture were mixed with 60 μl of […] FVa. After further incubation for 30 min, 25 μl of the reaction mixture were mixed with 50 μl of 1.3 μM human FXa and 100 μM fluorogenic thrombin substrate (Boc-Asp(OBzl)-Pro-Arg-AMC) and 50 μl of 10 nM human prothrombin. Thrombin catalyzed substrate hydrolysis was monitored at λex of 360 nm and λem of 460 nm using the Synergy 2 microplate reader.

plasmin [5] = target: T1, plasmin; assay: Michaelis-Menten kinetics of plasmin-mediated cleavage of fluorogenic peptide substrate; format: biochemical; settings: plasmin 5 nM; VHHs 1 μM, BPTI 3 nM, TXA 7.86 mg/ml; w/o ligand 51.8
Description: Subsequently, 50 μl of the fluorogenic substrate (3.16-3,160 μM final concentration in assay buffer) was added. Substrate hydrolysis rates were monitored by kinetic measurements using the Synergy 2 microplate reader. Apparent Michaelis-Menten constants (Km) and the turn-over number (kcat) values for substrate hydrolysis were calculated from best fit values of the Michaelis-Menten equation and the catalytic efficiencies were expressed as ratios of kcat/Km.
CI, confidence interval. ^a The turnover number (kcat) was calculated using Vmax values extracted from Michaelis-Menten least squares fit.

mouse plasmin = target: T3, mouse plasmin (mouse, UniProt P20918 98-581; P20918 582-812); assay: BLI (BLItz), His-tagged VHH on anti-HIS biosensor
T3 construct: domain: heavy chain or A-chain;domain: light chain that contains the serine protease domain; Purchased from Haematologic Technologies
T3 sequence (P20918 98-581 limits assumed, chain 1 of 2): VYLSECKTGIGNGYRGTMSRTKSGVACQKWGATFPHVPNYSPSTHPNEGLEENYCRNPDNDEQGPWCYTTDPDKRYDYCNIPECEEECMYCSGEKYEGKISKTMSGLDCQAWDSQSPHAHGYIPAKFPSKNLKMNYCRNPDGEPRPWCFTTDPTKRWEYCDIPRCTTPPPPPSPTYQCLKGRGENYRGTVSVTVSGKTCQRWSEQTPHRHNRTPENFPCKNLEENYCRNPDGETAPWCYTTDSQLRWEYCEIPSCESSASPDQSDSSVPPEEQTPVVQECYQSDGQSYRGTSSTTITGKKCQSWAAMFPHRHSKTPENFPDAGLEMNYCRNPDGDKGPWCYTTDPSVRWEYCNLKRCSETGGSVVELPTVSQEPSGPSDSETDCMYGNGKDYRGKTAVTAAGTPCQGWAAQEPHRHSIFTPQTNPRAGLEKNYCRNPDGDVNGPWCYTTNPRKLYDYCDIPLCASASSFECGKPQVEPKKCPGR
T3 sequence (P20918 582-812 limits assumed, chain 2 of 2): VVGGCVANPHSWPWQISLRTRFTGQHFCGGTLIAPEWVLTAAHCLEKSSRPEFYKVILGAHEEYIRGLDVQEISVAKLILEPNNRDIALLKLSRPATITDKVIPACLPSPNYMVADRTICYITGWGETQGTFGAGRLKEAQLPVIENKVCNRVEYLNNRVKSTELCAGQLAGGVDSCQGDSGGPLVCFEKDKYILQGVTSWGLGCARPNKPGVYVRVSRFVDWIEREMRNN

[6] = target: T4, tissue plasminogen activator (recombinant tPA, Actilyse) (UniProt P00750 36-562); assay: BLI (BLItz), His-tagged VHH on anti-HIS biosensor
T4 construct: Actilyse is recombinant human tPA (alteplase)
T4 sequence (P00750 36-562 limits assumed): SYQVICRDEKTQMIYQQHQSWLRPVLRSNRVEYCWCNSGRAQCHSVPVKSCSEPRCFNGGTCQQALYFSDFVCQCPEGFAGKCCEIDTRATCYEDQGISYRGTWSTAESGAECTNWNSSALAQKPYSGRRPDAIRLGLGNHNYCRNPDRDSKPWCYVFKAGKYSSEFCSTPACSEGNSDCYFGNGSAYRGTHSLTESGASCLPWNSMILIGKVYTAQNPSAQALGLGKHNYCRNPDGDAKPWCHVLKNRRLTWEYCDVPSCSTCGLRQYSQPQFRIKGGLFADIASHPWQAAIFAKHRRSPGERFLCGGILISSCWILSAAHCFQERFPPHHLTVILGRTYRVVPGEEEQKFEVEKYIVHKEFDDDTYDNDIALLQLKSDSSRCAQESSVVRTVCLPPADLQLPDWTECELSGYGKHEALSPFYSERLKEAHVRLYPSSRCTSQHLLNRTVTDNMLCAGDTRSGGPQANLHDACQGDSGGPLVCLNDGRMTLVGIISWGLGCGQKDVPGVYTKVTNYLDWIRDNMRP

human plasmin [7] = target: T5, human plasmin (human, UniProt P00747 97-580; P00747 581-810); assay: BLI (BLItz), His-tagged VHH on anti-HIS biosensor
T5 construct: domain: heavy chain or A-chain;domain: light chain that contains the serine protease domain; Two-chain protease derived from plasminogen; also called PLM; human Lys-plasmin
T5 sequence (P00747 97-580 limits assumed, chain 1 of 2): as the sequence (P00747 97-580 limits assumed) above
T5 sequence (P00747 581-810 limits assumed, chain 2 of 2): as the sequence (P00747 581-810 limits assumed) above

mouse plasminogen = target: T6, mouse plasminogen (mouse, UniProt P20918 20-812); assay: BLI (BLItz), His-tagged VHH on anti-HIS biosensor
T6 construct: mature; also called mouse Glu-plasminogen
T6 sequence (P20918 20-812 limits assumed): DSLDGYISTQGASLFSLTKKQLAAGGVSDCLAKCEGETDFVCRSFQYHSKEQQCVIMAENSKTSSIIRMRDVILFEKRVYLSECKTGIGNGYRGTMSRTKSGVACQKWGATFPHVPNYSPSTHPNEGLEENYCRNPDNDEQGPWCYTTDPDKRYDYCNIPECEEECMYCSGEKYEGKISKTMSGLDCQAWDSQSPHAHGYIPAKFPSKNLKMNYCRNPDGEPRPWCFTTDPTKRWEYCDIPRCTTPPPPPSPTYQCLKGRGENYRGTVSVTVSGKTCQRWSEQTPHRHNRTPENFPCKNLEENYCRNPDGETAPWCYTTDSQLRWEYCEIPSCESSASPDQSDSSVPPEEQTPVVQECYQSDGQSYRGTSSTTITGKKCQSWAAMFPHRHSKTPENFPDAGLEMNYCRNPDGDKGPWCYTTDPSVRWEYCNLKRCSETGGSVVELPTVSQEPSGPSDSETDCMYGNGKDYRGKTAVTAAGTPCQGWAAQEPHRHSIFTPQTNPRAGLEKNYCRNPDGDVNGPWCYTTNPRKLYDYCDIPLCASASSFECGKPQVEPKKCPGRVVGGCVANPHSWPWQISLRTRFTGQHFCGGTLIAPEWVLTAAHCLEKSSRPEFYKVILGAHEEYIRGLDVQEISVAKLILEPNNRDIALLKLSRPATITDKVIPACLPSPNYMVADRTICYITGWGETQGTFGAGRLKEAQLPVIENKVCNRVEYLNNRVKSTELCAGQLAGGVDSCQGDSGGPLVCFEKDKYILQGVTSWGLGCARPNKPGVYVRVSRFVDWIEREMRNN

human plasminogen = target: T7, human plasminogen (human, UniProt P00747 20-810); assay: BLI (BLItz), His-tagged VHH on anti-HIS biosensor
T7 construct: mature; Purchased plasma-derived Glu-plasminogen or in-house plasma-purified plasminogen; also called human PLG; plasma derived human Glu-plasminogen
T7 sequence (P00747 20-810 limits assumed): as the sequence (P00747 20-810 limits assumed) above

human plasmin [8] = target: T5, human plasmin; assay: cell-based or functional assay
human plasmin [9] = target: T5, human plasmin; assay: cell-based or functional assay; remark: listed apart in the source
human plasmin [10] = target: T5, human plasmin; assay: competition ELISA: A11 coated on the plate (10 µg/ml), plasmin 10 nM with free A11 (self-competition); bound plasmin read by hydrolysis of a fluorogenic substrate
Description: (§2) FIG. 2. VHHs competition ELISA. […] Data represent the mean±SD of two measurements.
(§3) To assess the competition of VHHs for similar or overlapping binding sites on the plasmin molecule, a competition ELISA was performed. Microtiter (96-well) plates were coated with VHHs (10 μg/ml in coating buffer, 100 μl/well) at 2-8° C. overnight. Wells were washed and non-specific protein-binding sites were blocked with 20 mg/ml bovine serum albumine (BSA) for 2 h at RT. After removing the blocking buffer, wells were overlaid with a reaction mixture containing plasmin (10 nM) and VHHs (0.316 nM-31.6 μM) in buffer (20 mM HEPES, 154 mM NaCl, BSA 1 mg/ml, pH 7.4) for 30 min at RT. After washing the amount of bound plasmin was quantified through hydrolysis rates of the fluorogenic plasmin substrate (300 μM, 100 μl/well). The fluorescence intensity measured in the absence of free VHHs was set as 100%.

human plasmin [11] = target: T5, human plasmin; assay: competition ELISA: C5 coated on the plate (10 µg/ml), plasmin 10 nM with free A11 as competitor of immobilized C5; bound plasmin read by hydrolysis of a fluorogenic substrate
Description: as §2, §3

human plasmin [12] = target: T5, human plasmin; assay: competition ELISA: A11 coated on the plate (10 µg/ml), plasmin 10 nM with free C5 as competitor of immobilized A11; bound plasmin read by hydrolysis of a fluorogenic substrate
Description: as §2, §3

human plasmin [13] = target: T5, human plasmin; assay: competition ELISA: C5 coated on the plate (10 µg/ml), plasmin 10 nM with free C5 (self-competition); bound plasmin read by hydrolysis of a fluorogenic substrate
Description: as §2, §3

plasmin [14] = target: T1, plasmin; assay: Plasmin inhibition assay (α2-AP-mediated plasmin inactivation); format: biochemical; settings: α2AP alone, molar excess of α2AP over plasmin
Description: FIG. 7. Impact of VHHs binding on α2-AP-mediated plasmin inactivation. […] After 30 min of incubation, the residual activity of plasmin was measured by addition of 50 μl of the sample to 50 μl of a plasmin-specific fluorogenic substrate (400 μM). The plasmin activity in the wells in the absence of VHHs and α2AP was considered as 100% activity and relative residual plasmin activities calculated accordingly. The data are presented as mean±SD of three independent measurements.
After incubation for 30 min at 37° C., 50 μl of the mixture were transferred to the wells of black F16 Fluoronunc modules and 50 μl of plasmin-specific fluorogenic substrate (800 μM) were added and substrate hydrolysis measured at λex of 360 nm and λem of 460 nm. The plasmin activity in the reactions containing all reagents except α2-AP was set as 100%.

| Kd (mouse plasmin) | Kd [6] | Kd (human plasmin [7]) | Kd (mouse plasminogen) | Kd (human plasminogen) | Kcat/Km of plasmin-mediated cleavage of fluorogenic peptide substrate, VHH 1 µM (human plasmin [9]) | kcat of plasmin-mediated cleavage of fluorogenic peptide substrate, VHH 1 µM (human plasmin [9]) | Molecule | other results |
| --- | --- | --- | --- | --- | --- | --- | --- | --- |
|  |  |  |  |  |  |  | NC[C@H]1CC[C@H](C(=O)O)CC1 [TXA, tranexamic acid, reference compound] | effect on lysis compared to VHHs (FIG. 4C, maximum lysis rates) [1]: inhibition of lysis; effect on fibrin clot formation parameters (clotting time, maximum clot firmness, maximum clot elasticity) [2]: does not affect; protection of plasmin from autocatalytic degradation (plasmin [3]): more effective than lysine; inhibition of plasmin generation at higher concentrations (plasminogen): plasmin generation is blocked; maximal rate of inhibition of plasmin-mediated cleavage of FVa (plasmin [4]; TXA 316 μM or higher): 48%; FVa cleavage at lower TXA concentrations (plasmin [4]; lower TXA concentrations): accelerated; kcat × 10^3 (s^−1) mean (95% CI) (plasmin [5]): 42.1 (40-44) s^−1 |
| 87.3 nM | 941 nM | 4.7 nM | > 1000 nM | > 100 nM | 2.28e+08 M⁻¹ s⁻¹ | 67200 s⁻¹ | VHH A11 including C-terminal His6-tag (VHH, Alpaca-derived) VHH: QVQLVETGGGLVQAGGSLRLSCAASGNIFSINAMDWYRQAPGKERELVAAITSGGTTNYADSVKGRFTISRDNAKDTVYLQMNSLKPEDAAFYYCNADGYYSDYDKNLAEFNSWGQGTQVTVSS | increase in plasmin peptide substrate conversion, at molar ratio of VHH over plasmin of 158 (human plasmin [8]): ~2.5 fold; IC50 (read off the curve) (human plasmin [10]): ~500 nM; IC50 (read off the curve) (human plasmin [11]): ~1000 nM |
| 172 nM | 213 nM | 6.8 nM | > 1000 nM | > 100 nM | 2.44e+08 M⁻¹ s⁻¹ | 69900 s⁻¹ | VHH C5 including C-terminal His6-tag (VHH, Alpaca-derived) VHH: QVQLVESGGGLVQAGGSLRLSCAASGRRFMVVAMGWYRQAPGNQRELVASITNGGTTNYAGSVKGRFTISGDSAKNTVYLHMNSLKPEDTAVYYCTTDVVFRDGNGQIQSNWGQGTQVTVSS | IC50 (read off the curve) (human plasmin [12]): ~500 nM; increase in plasmin peptide substrate conversion, at molar ratio of VHH over plasmin of 500 (human plasmin [8]): ~2.5 fold; IC50 (read off the curve) (human plasmin [13]): ~2000 nM |
|  |  |  |  |  |  |  | alpha2-antiplasmin (protein) NQEQVSPLTLLKLGNQEPGGQTALKSPPGVCSRDPTPEQTHRLARAMMAFTADLFSLVAQTSTCPNLILSPLSVALALSHLALGAQNHTLQRLQQVLHAGSGPCLPHLLSRLCQDLGPGAFRLAARMYLQKGFPIKEDFLEQSEQLFGAKPVSLTGKQEDDLANINQWVKEATEGKIQEFLSGLPEDTVLLLLNAIHFQGFWRNKFDPSLTQRDSFHLDEQFTVPVEMMQARTYPLRWFLLEQPEIQVAHFPFKNNMSFVVLVPTHFEWNVSQVLANLSWDTLHPPLVWERPTKVRLPKLYLKHQMDLVATLSQLGLQELFQAPDLRGISEQSLVVSGVQHQSTLELSEVGVEAAAATSIAMSRMSLSSFSVNRPFLFFIFEDTTGLPLFVGSVRNPNPSAPRELKEQQDSPGNKDFLQSLKGFPRGDKLFGPDLKLVPPMEEDYPQFGSPK | residual plasmin activity (plasmin [14]): < 0.1% |

— US20250179215A1, “PLASMIN-BINDING VHHS” (RHEINISCHE FRIEDRICH-WILHELMS-UNIVERSITÄT BONN, priority 2022, published 2025)
